Experimental data reported in article doi:10.1101/2025.10.26.684595.

Experiments:
[1] = molecular target: human PIEZO2 in the cryo-EM complexes with MDFIC and MDFIC2 (human) (UniProt Q9H5I5); assay: cryo-EM structure
[2] = molecular target: mouse PIEZO1 in the cryo-EM complex with mouse MDFI (mouse) (UniProt E2JF22); assay: cryo-EM structure; details: remark: other sources report otherwise

| stoichiometry N [1] | stoichiometry N [2] | Substance |
| --- | --- | --- |
| 3 | – | human PIEZO2 in the cryo-EM complexes with MDFIC and MDFIC2, Q9H5I5 |
| – | 3 | mouse PIEZO1 in the cryo-EM complex with mouse MDFI, E2JF22 1-2547 |
